We go through 30 sequences from the supplement of paper PMC9170038.

The series deals with MS2 coat protein. Description: apparent KD of MS2 coat protein; designed switch direction (-1 OFF switch, 1 ON switch): -1; higher = weaker reporter binding. The essentials: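 Designed RNA switches sharing common flanks were transcribed on Illumina chips by stalled E. coli RNA polymerase. They were titrated with SNAP-549-labelled MS2 coat protein, from 0.7 or 1.5 nM doubling to 3 µM, in Tris-HCl pH 7.5 buffer with KCl, MgCl2, BSA, DTT, tRNA and Tween-20. Titrations ran without input, with 200 uM small-molecule ligand, or with an oligonucleotide input. The apparent KD of each design is the median over its clusters, after curve-fitting of normalised cluster fluorescence.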

[1] abbreviates: Eterna round: R95, input ligand: microRNA oligo, concentration not stated.
Where [2] appears, read: input ligand: microRNA oligo, concentration not stated.
Setting [3] is: Eterna round: R95, input ligand: FMN 200 uM.
The mark [4] stands for this setting: Eterna round: R95, input ligand: none.

For “GGUGCGUAUGUGAGGAUAUGCUGGUCCUUGGAUCGGCAGAAGGUACAUGAGGAUCACCCAUGUGGUGUCGUUCU [salish99_Bmod_ex4_105] (puzzle: Brourd's mod of Exclusion 4)”, the “apparent KD of MS2 coat protein” value under setting [1] turned out to be 232 nM.

For the sequence “GCAGCAACUCUAAUCAAACCAACAUGAGGAUCACCCAUGUCUCAGGAUAUGGUCUGGAUUACAGGCCAGAAGGGAGAAAGCUGC [Eli exng3 - 047] (Eterna round: R96, puzzle: Exclusion NG 3)”, the “apparent KD of MS2 coat protein” value runs as follows: (input ligand: FMN 200 uM) 11.6 nM; under setting [2], 11.4 nM; (input ligand: none) 14.9 nM.

In the case of “AGCUAGUCAGGAUAUUCUAUUAAUUACAUGAGGAUCACCCAUGUGAAUGGGCAAGGGUGUGAAGAAGGGACUAGCG [Omei Ex5 A16] (Eterna round: R97, puzzle: Exclusion 5)”, the “apparent KD of MS2 coat protein” value was found to be 305 nM (input ligand: FMN 200 uM) and 1030 nM (input ligand: none).

In the case of “UUUUUUGGGCAAGGAUAUCCUGUGCGGUUCCGGCUCGUGUCUGUCACAUGAGGAUCACCCAUGUGGGAGAAGGUGCCUGCGGUU [Design 84] (Eterna round: R96, puzzle: Exclusion NG 2)”, the “apparent KD of MS2 coat protein” value runs as follows: (input ligand: FMN 200 uM) 15.1 nM; under setting [2], 10.8 nM; (input ligand: none) 15.4 nM.

On to “UCUCUUGGGCAAGGAUAUCCUGCGCGGUUCCGGUUCGUGUCUGUCACAUGAGGAUCACCCAUGUGGGAGAAGGUGCCUGCGGUU [Design 76] (Eterna round: R96, puzzle: Exclusion NG 2)”, for which, under setting [2], the “apparent KD of MS2 coat protein” value amounted to 13.1 nM.

Consider “GCCGAAAGUGUGAGGAUAUACCUAUGGAAACAUAGGUAGAAGGCACAUGAGGAUCACCCAUGUGGGAAAACGGC [Mat - Exclusion 4 - Eli Mod - D29] (Eterna round: R97, puzzle: Brourd's mod of Exclusion 4)”, for which the “apparent KD of MS2 coat protein” value (input ligand: FMN 200 uM) stood at 322 nM and the “apparent KD of MS2 coat protein” value (input ligand: none) came to 152 nM.

Take “CUUUUGUGAGGAUAUUAGUAGUAAAUAAAUAAAAUUACUAUUGAGAAGGCACAUGAGGAUCACCCAUGUUCCUC [salish99_ex4_r3_064] (puzzle: Exclusion 4)”: under setting [1], the “apparent KD of MS2 coat protein” value amounted to 30.3 nM.

For “AGUACUCUCACGAAAGUGAGAGUACAAAAAGCAAGUGAAACAUGAGGAUCACCCAUGUCCUCAUUUGCUCGUCUUAU [Mat - Sensor v2 -ver2- JL mod - D88] (Eterna round: R96, puzzle: Sensor v2, turn-off variant 2)”, the “apparent KD of MS2 coat protein” value was 11.8 nM (input ligand: FMN 200 uM), 413 nM under setting [2] and 14.4 nM (input ligand: none).

With “GGAAGGCGAGGAUAUGCAAUAAUACACUCGAAGGAGUGAUAACAUGAGGAUCACCCAUGUAGAAGGCGCGAGAA [AK-MS2ROC-r4-exclusion2-6] (Eterna round: R97, puzzle: Exclusion 2)”, the “apparent KD of MS2 coat protein” value runs as follows: (input ligand: FMN 200 uM) 36.1 nM; (input ligand: none) 36.1 nM.

Consider “AGCGAAUAAGCAGGAUAUGAGAAUAGAUAGAGCUCAGAAGGGCUACAUGAGGAUCACCCAUGUAAAGUCUUGAGGCUGCGUGGU [Prohibition 13 - Jieux - Exclusion NG 1] (Eterna round: R96, puzzle: Exclusion NG 1)”, for which the “apparent KD of MS2 coat protein” value (input ligand: FMN 200 uM) came to 22.5 nM, the “apparent KD of MS2 coat protein” value under setting [2] stood at 14.4 nM and the “apparent KD of MS2 coat protein” value (input ligand: none) is 18.4 nM.

For “AAGACACAUGAGGAUCACCCAUGUGAGGAUAUUCGAUGCUGAGCGUAAGCUUAGUAUCGGAGAAGGCACAUAGG [Salishxclusion 8 - Jieux - Exclusion 1] (Eterna round: R97, puzzle: Exclusion 1)”, the “apparent KD of MS2 coat protein” value runs as follows: (input ligand: FMN 200 uM) 203 nM; (input ligand: none) 251 nM.

Regarding “ACCUCACAUGAGGAUCACCCAUGUCAGGAUAUCUGAUGUAGUCCCGUUCCGGACGCUGAGAGAAGGGACGUUGA [EX1 #39] (Eterna round: R97, puzzle: Exclusion 1)”, the “apparent KD of MS2 coat protein” value turned out to be 38.9 nM (input ligand: FMN 200 uM) and 51.6 nM (input ligand: none).

Regarding “UUACUACAUGUAGGAUAUGCGUGGCGAAGCUAUGCAGAAGGACAUGAGGAUCACCCAUGUUUUAGCGUCUGCGUACAGAUGCGU [JL ENG1 1.47] (Eterna round: R96, puzzle: Exclusion NG 1)”, the “apparent KD of MS2 coat protein” value under setting [2] turned out to be 14.8 nM.

In the case of “UUUAAGUCAGGAUAUACAUGAGGAUCACCCAUGUAAAAUUUUAAUUUAAUUUGAAGGUGUAGAAGGGACAAAUU [Ex3 #37] (Eterna round: R97, puzzle: Exclusion 3)”, the “apparent KD of MS2 coat protein” value runs as follows: (input ligand: FMN 200 uM) 23 nM; (input ligand: none) 24.6 nM.

Consider “AUAUCCCGAGGAUAUACAUGAGGAUCACCCAUGUCGGGCCUCUGGCCUAAGGCCGAAAGUAGAAGGUGGGUUUC [JL Riri mod 11] (puzzle: Exclusion 3)”, for which the “apparent KD of MS2 coat protein” value under setting [1] amounted to 126 nM.

For the sequence “AUAAGAAAGGCAGGAUAUUGUGCACCCUAGUGACAAGAAGGGCCAGGGUGUGCGCUCCACAUGAGGAUCACCCAUGUUAGAAAG [Berimate] (Eterna round: R96, puzzle: Exclusion NG 1)”, the “apparent KD of MS2 coat protein” value reads like this: (input ligand: FMN 200 uM) 26.4 nM; under setting [2], 27 nM; (input ligand: none) 29.3 nM.

As to “CGAUAAUCCAAGGAUAUGCUAGACGAAAGUCUAGCAGAAGGUGGAACAUGAGGAUCACCCAUGUGUCCAAAUCG [Mat - Exclusion 6 - Eli Mod - D27] (Eterna round: R97, puzzle: Exclusion 6)”, the “apparent KD of MS2 coat protein” value came to 22.2 nM (input ligand: FMN 200 uM) and 14.7 nM (input ligand: none).

For “GGUACUAACACGAGAGUGUUAGUACUAUAAGCUUGUGUUACAUGAGGAUCACCCAUGUCCUCAUAAGCUCGUCUUGA [Mat - Sensor v3 - Turn-off var 2 - D90] (puzzle: Sensor v3, turn-off variant 2)”, the “apparent KD of MS2 coat protein” value is, setting by setting: under setting [3], 33 nM; under setting [1], 974 nM; under setting [4], 36.2 nM.

“AAGAAACAUGAGGAUCACCCAUGUGAGGAUAUGAAGAAGAAAAGAAAAGAAAGAAGAAUCAGAAGGCACAAAGG [salish99-ex1_r3_046] (puzzle: Exclusion 1)”: the “apparent KD of MS2 coat protein” value is, setting by setting: under setting [3], 67.1 nM; under setting [1], 25.8 nM; under setting [4], 48.4 nM.

As to “UAUAUAUAGUAAGGAUAUGUAUUUAUUUUAUUAACAGAAGGUACUGACAUGAGGAUCACCCAUGUUUUAGUGUGGGCAUGUAGA [JMF's solution 25] (Eterna round: R96, puzzle: Exclusion NG 1)”, under setting [2], the “apparent KD of MS2 coat protein” value is 77.7 nM.

As to “GGUCGGGCAAAGGAUGCCCACAUGAGGAUCACCCAUGUACAAGACUUUAAGGUGCGUAAGCGCAUACGGCUCGUUAA [Eternabot (L1) Solution 26] (Eterna round: R97, puzzle: Sensor, turn-off variant 1)”, the “apparent KD of MS2 coat protein” value runs as follows: (input ligand: FMN 200 uM) 15.9 nM; (input ligand: none) 16.5 nM.

With “CACCUCGUAGCAGGAUAUUAGAGCUUCCGCAAAUGAGAAGGGCUACGAAACACUUGAGGAUCACCCAAGUACCGUGGUCCUCUA [Mutated MS2 EX1.11] (Eterna round: R96, puzzle: Exclusion NG 1)”, the “apparent KD of MS2 coat protein” value by setting is: (input ligand: FMN 200 uM) 19.7 nM; under setting [2], 14 nM; (input ligand: none) 22.3 nM.

As to “AAACCUAGUCUAGGAUAUGGUGAGAGUUUGUCGGUGAGUACAUGAGGAUCACCCAUGUACGCUUGCUAGAAGGAGACAGGCUCG [Eternabot solution 37] (Eterna round: R96, puzzle: Exclusion NG 2)”, the “apparent KD of MS2 coat protein” value reads like this: (input ligand: FMN 200 uM) 13.7 nM; under setting [2], 11.5 nM; (input ligand: none) 14.6 nM.

As to “UCUAACCAUGUAGGAUAUGCGUGGCUAAGCUAUGCAGAAGGACAUGAGGAUCACCCAUGUGCCUCCGUCUGCGUACAGUCGGCU [EXclNG1-LROPPY01] (Eterna round: R96, puzzle: Exclusion NG 1)”, the “apparent KD of MS2 coat protein” value reads like this: (input ligand: FMN 200 uM) 15.5 nM; under setting [2], 11.2 nM; (input ligand: none) 18.5 nM.

Regarding “AAACCCUGAGGAUAUGCAUAACAACAAAGCCUCACGUGCCAACAUGAGGAUCACCCAUGUAGAAGGCGGGCCAA [Mod R3 Insanara 18 - Jieux - Exclusion 2] (Eterna round: R97, puzzle: Exclusion 2)”, the “apparent KD of MS2 coat protein” value is, setting by setting: (input ligand: FMN 200 uM) 24.3 nM; (input ligand: none) 15.7 nM.

As for “UACUGGACAGGAUAUGUUCUUGAGCACUUGAGGAUCACCCAAGUCAUCAAGAACUCAGGCACAGAAGGGUUUAUGA [salish99_ex5_r4_004] (Eterna round: R97, puzzle: Exclusion 5)”, the “apparent KD of MS2 coat protein” value (input ligand: FMN 200 uM) turned out to be 22 nM and the “apparent KD of MS2 coat protein” value (input ligand: none) is 15.4 nM.

Take “CCCACAGGACAUGAGGAUCACCCAUGUGCGAUAUCCUGAGCGCAGGAUAUUUUCCCACGAAAGGAAGAGAAGGGCGCCGAAAGC [Eternabot solution 1] (Eterna round: R96, puzzle: Exclusion NG 3)”: the “apparent KD of MS2 coat protein” value turned out to be 24.6 nM (input ligand: FMN 200 uM), 29.6 nM under setting [2] and 44.3 nM (input ligand: none).

For the sequence “GUCUACCAGCUAGGAUAUGCAGUACAUUAAAAUGUAGAAGGAGCACGAUCCAGACAUGAGGAUCACCCAUGUGGGCGGUAGGCA [Aques] (Eterna round: R96, puzzle: Exclusion NG 1)”, under setting [2], the “apparent KD of MS2 coat protein” value turned out to be 15.6 nM.

Regarding “UUAUACGUUGAGGAUAUGCGAUUUAGUAUAGUUGCAGAAGGCGAUACAUGAGGAUCACCCAUGUUUAUGGGCAU [LRO-Ex6-07] (puzzle: Exclusion 6)”, the “apparent KD of MS2 coat protein” value came to 394 nM under setting [3], 269 nM under setting [1] and 259 nM under setting [4].

In the case of “UAUUAGCAAGCGAGUGGGUACAUGAGGAUCACCCAUGUGCUCGUCUUAUAAGGUACUGUGACGAAAGUCACGGUACC [Eli 91 v33] (Eterna round: R97, puzzle: Sensor, turn-off variant 1)”, the “apparent KD of MS2 coat protein” value is, setting by setting: (input ligand: FMN 200 uM) 16.1 nM; (input ligand: none) 13.4 nM.
